± gives the standard error.
Experiment: background-corrected fluorescence of 3'-dye-labeled ssDNA relative to brightest sequence (3'-GCGCG) (fraction); higher = brighter dye fluorescence (less quenching)
How it was run: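 Single-stranded DNA was built on glass slides by light-directed phosphoramidite synthesis, ending in a 3' Cy3 or Cy5 dye beside each of 1024 permuted pentamers. Arrays were washed in acetonitrile for 2 h at r.t., then scanned at 532 or 635 nm before and after overnight ethylenediamine/ethanol deprotection. Each value averages 10 features per array and at least 3 syntheses. Fluorescence, corrected by subtracting unlabeled-oligo background, is scaled to the brightest sequence.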

TTTTTTGATGAGCATGCTGCTTTTTTTTTTTTTTTCCTAA [AATCC]
background-corrected fluorescence (dye: Cy3 (3' terminal)): 0.538 ± 0.015 | background-corrected fluorescence (dye: Cy5 (3' terminal)): 0.432 ± 0.031

TTTTTTGATGATCAGCAGCATTTTTTTTTTTTTTTCCGTT [TTGCC]
background-corrected fluorescence (dye: Cy3 (3' terminal)): 0.542 ± 0.036 | background-corrected fluorescence (dye: Cy5 (3' terminal)): 0.446 ± 0.059

TTTTTTGATGATCAGCATCATTTTTTTTTTTTTTTCCGTG [GTGCC]
background-corrected fluorescence (dye: Cy3 (3' terminal)): 0.533 ± 0.0058 | background-corrected fluorescence (dye: Cy5 (3' terminal)): 0.435 ± 0.029

TTTTTTGATGATCAGCATGATTTTTTTTTTTTTTTCCGTC [CTGCC]
background-corrected fluorescence (dye: Cy3 (3' terminal)): 0.442 ± 0.019 | background-corrected fluorescence (dye: Cy5 (3' terminal)): 0.345 ± 0.018

TTTTTTGATGATCAGCATGCTTTTTTTTTTTTTTTCCGTA [ATGCC]
background-corrected fluorescence (dye: Cy3 (3' terminal)): 0.546 ± 0.025 | background-corrected fluorescence (dye: Cy5 (3' terminal)): 0.436 ± 0.028

TTTTTTGATGATCATCAGCATTTTTTTTTTTTTTTCCGGT [TGGCC]
background-corrected fluorescence (dye: Cy3 (3' terminal)): 0.729 ± 0.028 | background-corrected fluorescence (dye: Cy5 (3' terminal)): 0.624 ± 0.064

TTTTTTGATGATCATCATCATTTTTTTTTTTTTTTCCGGG [GGGCC]
background-corrected fluorescence (dye: Cy3 (3' terminal)): 0.731 ± 0.012 | background-corrected fluorescence (dye: Cy5 (3' terminal)): 0.655 ± 0.076

TTTTTTGATGATCATCATGATTTTTTTTTTTTTTTCCGGC [CGGCC]
background-corrected fluorescence (dye: Cy3 (3' terminal)): 0.623 ± 0.025 | background-corrected fluorescence (dye: Cy5 (3' terminal)): 0.511 ± 0.041

TTTTTTGATGATCATCATGCTTTTTTTTTTTTTTTCCGGA [AGGCC]
background-corrected fluorescence (dye: Cy3 (3' terminal)): 0.773 ± 0.024 | background-corrected fluorescence (dye: Cy5 (3' terminal)): 0.714 ± 0.045

TTTTTTGATGATCATGAGCATTTTTTTTTTTTTTTCCGCT [TCGCC]
background-corrected fluorescence (dye: Cy3 (3' terminal)): 0.579 ± 0.035 | background-corrected fluorescence (dye: Cy5 (3' terminal)): 0.428 ± 0.034

TTTTTTGATGATCATGATCATTTTTTTTTTTTTTTCCGCG [GCGCC]
background-corrected fluorescence (dye: Cy3 (3' terminal)): 0.961 ± 0.026 | background-corrected fluorescence (dye: Cy5 (3' terminal)): 0.944 ± 0.034

TTTTTTGATGATCATGATGATTTTTTTTTTTTTTTCCGCC
background-corrected fluorescence (dye: Cy3 (3' terminal)): 0.445 ± 0.024 | background-corrected fluorescence (dye: Cy5 (3' terminal)): 0.33 ± 0.022

TTTTTTGATGATCATGATGCTTTTTTTTTTTTTTTCCGCA [ACGCC]
background-corrected fluorescence (dye: Cy3 (3' terminal)): 0.539 ± 0.034 | background-corrected fluorescence (dye: Cy5 (3' terminal)): 0.475 ± 0.024

TTTTTTGATGATCATGCGCATTTTTTTTTTTTTTTCCGAT [TAGCC]
background-corrected fluorescence (dye: Cy3 (3' terminal)): 0.603 ± 0.04 | background-corrected fluorescence (dye: Cy5 (3' terminal)): 0.435 ± 0.022

TTTTTTGATGATCATGCTCATTTTTTTTTTTTTTTCCGAG [GAGCC]
background-corrected fluorescence (dye: Cy3 (3' terminal)): 0.593 ± 0.015 | background-corrected fluorescence (dye: Cy5 (3' terminal)): 0.501 ± 0.072

TTTTTTGATGATCATGCTGATTTTTTTTTTTTTTTCCGAC [CAGCC]
background-corrected fluorescence (dye: Cy3 (3' terminal)): 0.464 ± 0.024 | background-corrected fluorescence (dye: Cy5 (3' terminal)): 0.374 ± 0.068

TTTTTTGATGATCATGCTGCTTTTTTTTTTTTTTTCCGAA [AAGCC]
background-corrected fluorescence (dye: Cy3 (3' terminal)): 0.647 ± 0.047 | background-corrected fluorescence (dye: Cy5 (3' terminal)): 0.49 ± 0.031

TTTTTTGATGATGAGCAGCATTTTTTTTTTTTTTTCCCTT
background-corrected fluorescence (dye: Cy3 (3' terminal)): 0.452 ± 0.011 | background-corrected fluorescence (dye: Cy5 (3' terminal)): 0.359 ± 0.025

TTTTTTGATGATGAGCATCATTTTTTTTTTTTTTTCCCTG [GTCCC]
background-corrected fluorescence (dye: Cy3 (3' terminal)): 0.528 ± 0.048 | background-corrected fluorescence (dye: Cy5 (3' terminal)): 0.364 ± 0.024

TTTTTTGATGATGAGCATGATTTTTTTTTTTTTTTCCCTC [CTCCC]
background-corrected fluorescence (dye: Cy3 (3' terminal)): 0.346 ± 0.012 | background-corrected fluorescence (dye: Cy5 (3' terminal)): 0.26 ± 0.019

TTTTTTGATGATGAGCATGCTTTTTTTTTTTTTTTCCCTA [ATCCC]
background-corrected fluorescence (dye: Cy3 (3' terminal)): 0.458 ± 0.025 | background-corrected fluorescence (dye: Cy5 (3' terminal)): 0.35 ± 0.019

TTTTTTGATGATGATCAGCATTTTTTTTTTTTTTTCCCGT [TGCCC]
background-corrected fluorescence (dye: Cy3 (3' terminal)): 0.585 ± 0.034 | background-corrected fluorescence (dye: Cy5 (3' terminal)): 0.48 ± 0.021

TTTTTTGATGATGATCATCATTTTTTTTTTTTTTTCCCGG [GGCCC]
background-corrected fluorescence (dye: Cy3 (3' terminal)): 0.625 ± 0.027 | background-corrected fluorescence (dye: Cy5 (3' terminal)): 0.562 ± 0.072

TTTTTTGATGATGATCATGATTTTTTTTTTTTTTTCCCGC [CGCCC]
background-corrected fluorescence (dye: Cy3 (3' terminal)): 0.51 ± 0.013 | background-corrected fluorescence (dye: Cy5 (3' terminal)): 0.419 ± 0.034

TTTTTTGATGATGATCATGCTTTTTTTTTTTTTTTCCCGA [AGCCC]
background-corrected fluorescence (dye: Cy3 (3' terminal)): 0.629 ± 0.051 | background-corrected fluorescence (dye: Cy5 (3' terminal)): 0.554 ± 0.034

TTTTTTGATGATGATGAGCATTTTTTTTTTTTTTTCCCCT
background-corrected fluorescence (dye: Cy3 (3' terminal)): 0.438 ± 0.024 | background-corrected fluorescence (dye: Cy5 (3' terminal)): 0.312 ± 0.016

TTTTTTGATGATGATGATCATTTTTTTTTTTTTTTCCCCG [GCCCC]
background-corrected fluorescence (dye: Cy3 (3' terminal)): 0.471 ± 0.035 | background-corrected fluorescence (dye: Cy5 (3' terminal)): 0.377 ± 0.026

TTTTTTGATGATGATGATGATTTTTTTTTTTTTTTCCCCC
background-corrected fluorescence (dye: Cy3 (3' terminal)): 0.369 ± 0.018 | background-corrected fluorescence (dye: Cy5 (3' terminal)): 0.251 ± 0.018

TTTTTTGATGATGATGATGCTTTTTTTTTTTTTTTCCCCA [ACCCC]
background-corrected fluorescence (dye: Cy3 (3' terminal)): 0.423 ± 0.023 | background-corrected fluorescence (dye: Cy5 (3' terminal)): 0.352 ± 0.021

TTTTTTGATGATGATGCGCATTTTTTTTTTTTTTTCCCAT [TACCC]
background-corrected fluorescence (dye: Cy3 (3' terminal)): 0.49 ± 0.03 | background-corrected fluorescence (dye: Cy5 (3' terminal)): 0.356 ± 0.015

TTTTTTGATGATGATGCTCATTTTTTTTTTTTTTTCCCAG [GACCC]
background-corrected fluorescence (dye: Cy3 (3' terminal)): 0.504 ± 0.0073 | background-corrected fluorescence (dye: Cy5 (3' terminal)): 0.374 ± 0.025

TTTTTTGATGATGATGCTGATTTTTTTTTTTTTTTCCCAC [CACCC]
background-corrected fluorescence (dye: Cy3 (3' terminal)): 0.373 ± 0.022 | background-corrected fluorescence (dye: Cy5 (3' terminal)): 0.294 ± 0.044

TTTTTTGATGATGATGCTGCTTTTTTTTTTTTTTTCCCAA [AACCC]
background-corrected fluorescence (dye: Cy3 (3' terminal)): 0.485 ± 0.031 | background-corrected fluorescence (dye: Cy5 (3' terminal)): 0.386 ± 0.022

TTTTTTGATGATGCGCAGCATTTTTTTTTTTTTTTCCATT [TTACC]
background-corrected fluorescence (dye: Cy3 (3' terminal)): 0.541 ± 0.041 | background-corrected fluorescence (dye: Cy5 (3' terminal)): 0.357 ± 0.02

TTTTTTGATGATGCGCATCATTTTTTTTTTTTTTTCCATG [GTACC]
background-corrected fluorescence (dye: Cy3 (3' terminal)): 0.542 ± 0.026 | background-corrected fluorescence (dye: Cy5 (3' terminal)): 0.361 ± 0.035

TTTTTTGATGATGCGCATGATTTTTTTTTTTTTTTCCATC [CTACC]
background-corrected fluorescence (dye: Cy3 (3' terminal)): 0.387 ± 0.081 | background-corrected fluorescence (dye: Cy5 (3' terminal)): 0.281 ± 0.02

TTTTTTGATGATGCGCATGCTTTTTTTTTTTTTTTCCATA [ATACC]
background-corrected fluorescence (dye: Cy3 (3' terminal)): 0.488 ± 0.015 | background-corrected fluorescence (dye: Cy5 (3' terminal)): 0.38 ± 0.033

TTTTTTGATGATGCTCAGCATTTTTTTTTTTTTTTCCAGT [TGACC]
background-corrected fluorescence (dye: Cy3 (3' terminal)): 0.615 ± 0.023 | background-corrected fluorescence (dye: Cy5 (3' terminal)): 0.458 ± 0.021

TTTTTTGATGATGCTCATCATTTTTTTTTTTTTTTCCAGG [GGACC]
background-corrected fluorescence (dye: Cy3 (3' terminal)): 0.642 ± 0.016 | background-corrected fluorescence (dye: Cy5 (3' terminal)): 0.511 ± 0.057

TTTTTTGATGATGCTCATGATTTTTTTTTTTTTTTCCAGC [CGACC]
background-corrected fluorescence (dye: Cy3 (3' terminal)): 0.503 ± 0.036 | background-corrected fluorescence (dye: Cy5 (3' terminal)): 0.395 ± 0.02

TTTTTTGATGATGCTCATGCTTTTTTTTTTTTTTTCCAGA [AGACC]
background-corrected fluorescence (dye: Cy3 (3' terminal)): 0.635 ± 0.027 | background-corrected fluorescence (dye: Cy5 (3' terminal)): 0.527 ± 0.028

TTTTTTGATGATGCTGAGCATTTTTTTTTTTTTTTCCACT [TCACC]
background-corrected fluorescence (dye: Cy3 (3' terminal)): 0.444 ± 0.029 | background-corrected fluorescence (dye: Cy5 (3' terminal)): 0.322 ± 0.023

TTTTTTGATGATGCTGATCATTTTTTTTTTTTTTTCCACG [GCACC]
background-corrected fluorescence (dye: Cy3 (3' terminal)): 0.513 ± 0.025 | background-corrected fluorescence (dye: Cy5 (3' terminal)): 0.386 ± 0.021

TTTTTTGATGATGCTGATGATTTTTTTTTTTTTTTCCACC
background-corrected fluorescence (dye: Cy3 (3' terminal)): 0.378 ± 0.0043 | background-corrected fluorescence (dye: Cy5 (3' terminal)): 0.275 ± 0.026

TTTTTTGATGATGCTGATGCTTTTTTTTTTTTTTTCCACA [ACACC]
background-corrected fluorescence (dye: Cy3 (3' terminal)): 0.472 ± 0.027 | background-corrected fluorescence (dye: Cy5 (3' terminal)): 0.375 ± 0.055

TTTTTTGATGATGCTGCGCATTTTTTTTTTTTTTTCCAAT [TAACC]
background-corrected fluorescence (dye: Cy3 (3' terminal)): 0.527 ± 0.017 | background-corrected fluorescence (dye: Cy5 (3' terminal)): 0.394 ± 0.022

TTTTTTGATGATGCTGCTCATTTTTTTTTTTTTTTCCAAG [GAACC]
background-corrected fluorescence (dye: Cy3 (3' terminal)): 0.521 ± 0.029 | background-corrected fluorescence (dye: Cy5 (3' terminal)): 0.384 ± 0.029

TTTTTTGATGATGCTGCTGATTTTTTTTTTTTTTTCCAAC [CAACC]
background-corrected fluorescence (dye: Cy3 (3' terminal)): 0.403 ± 0.021 | background-corrected fluorescence (dye: Cy5 (3' terminal)): 0.291 ± 0.02

TTTTTTGATGATGCTGCTGCTTTTTTTTTTTTTTTCCAAA [AAACC]
background-corrected fluorescence (dye: Cy3 (3' terminal)): 0.559 ± 0.025 | background-corrected fluorescence (dye: Cy5 (3' terminal)): 0.445 ± 0.051

TTTTTTGATGCGCAGCAGCATTTTTTTTTTTTTTTCATTT [TTTAC]
background-corrected fluorescence (dye: Cy3 (3' terminal)): 0.523 ± 0.022 | background-corrected fluorescence (dye: Cy5 (3' terminal)): 0.38 ± 0.032

TTTTTTGATGCGCAGCATCATTTTTTTTTTTTTTTCATTG [GTTAC]
background-corrected fluorescence (dye: Cy3 (3' terminal)): 0.561 ± 0.029 | background-corrected fluorescence (dye: Cy5 (3' terminal)): 0.363 ± 0.021

Source: the supplement of paper PMC9428881
